US20040058393A1 (published 2004)
Substitutions are numbered along the chain they refer to.

T1: human TPO receptor (MPL) expressed on Ba/F3 cells (human, UniProt P40238 26-635)
T1 sequence (looked up): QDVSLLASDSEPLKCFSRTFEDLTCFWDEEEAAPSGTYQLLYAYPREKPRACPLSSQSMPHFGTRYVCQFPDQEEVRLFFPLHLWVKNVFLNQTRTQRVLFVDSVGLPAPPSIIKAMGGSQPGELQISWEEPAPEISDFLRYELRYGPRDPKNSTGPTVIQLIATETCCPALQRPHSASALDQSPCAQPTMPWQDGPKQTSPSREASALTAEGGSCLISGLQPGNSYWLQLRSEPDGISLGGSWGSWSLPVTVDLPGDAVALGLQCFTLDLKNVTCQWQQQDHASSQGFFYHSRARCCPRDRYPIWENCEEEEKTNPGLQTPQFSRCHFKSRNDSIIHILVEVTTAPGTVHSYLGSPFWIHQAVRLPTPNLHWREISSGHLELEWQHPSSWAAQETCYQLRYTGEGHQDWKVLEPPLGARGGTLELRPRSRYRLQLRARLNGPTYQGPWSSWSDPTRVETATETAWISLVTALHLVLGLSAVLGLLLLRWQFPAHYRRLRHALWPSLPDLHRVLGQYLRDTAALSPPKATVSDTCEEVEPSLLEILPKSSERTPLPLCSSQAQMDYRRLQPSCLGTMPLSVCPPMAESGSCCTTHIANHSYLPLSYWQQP

B1: antibody 12B5 (IgG) (antibody, V domains shown)
VH: QVQLVQSGGGLVRPGGSLSLSCAVSGITLRTYGMHWVRQAPGKGLEWVAGISFDGRSEYYADSVQGRFTISRDSSKNTLYLQMNSLRAEDTAVYYCARGAHYGFDIWGQGTMVTVSS
VL: DIQMTQSPSTLSASIGDRVTITCRASEGIYHWLAWYQQKPGKAPKLLIYKASSLASGAPSRFSGSGSGTDFTLTISSLQPDDFATYYCQQYSNYPLTFGGGTKLEIK
B2: 12B5Fab (Fab, V domains shown)
VH: B1 VH
VL: B1 VL
B3: reconstructed 12B5 single chain Fv (sc12B5), culture supernatant of COS-7 cells (scFv)
scFv: QVQLVQSGGGLVRPGGSLSLSCAVSGITLRTYGMHWVRQAPGKGLEWVAGISFDGRSEYYADSVQGRFTISRDSSKNTLYLQMNSLRAEDTAVYYCARGAHYGFDIWGQGTMVTVSSGGGGSGGGGSGGGGSDIQMTQSPSTLSASIGDRVTITCRASEGIYHWLAWYQQKPGKAPKLLIYKASSLASGAPSRFSGSGSGTDFTLTISSLQPDDFATYYCQQYSNYPLTFGGGTKLEIKDYKDDDDK
B4: sc12B5 monomer (scFv)
scFv: B3 scFv
B5: sc12B5 dimer (scFv)
scFv: B3 scFv
B6: chimera MABL-1 antibody (antibody, V domains shown)
VH: QVQLQQSGPDLVKPGASVKMSCKASGYTFVNHVMHWVKQKPGQGLEWIGYIYPYNDGTKYNEKFKGKATLTSEKSSSAAYMELSSLASEDSAVYYCARGGYYSYDDWGQGTTLTVSS
VL: DVVMTQTPLSLPVSLGDQASISCRSSQSLLHSKGNTYLQWYLQKPGQSPKLLIYKVSNRFSGVPDRFSGSGSGTDFTLKISRVEAEDLGVYFCSQSTHVPYTSGGGTKLEIK
notes: Mouse V regions cloned into HEF-gamma and HEF-kappa vectors with human C regions; COS7 culture supernatant
B7: MABL2-scFv <HL-0> (scFv)
scFv: QVQLQQSGPELVKPGASVKMSCKASGYTFANHVIHWVKQKPGQGLEWIGYIYPYNDGTKYNEKFKDKATLTSDKSSTTAYMDLSSLASEDSAVYYCARGGYYTYDDWGQGTTLTVSSDVVMTQSPLSLPVSLGDQASISCRSSQSLVHSNGKTYLHWYLQKPGQSPKLLIYKVSNRFSGVPDRFSGSGSVTDFTLMISRVEAEDLGVYFCSQSTHVPYTFGGGTKLEIKDYKDDDDK
notes: COS7 culture supernatant; also called CF2HL-0/pCOS1
B8: MABL2-scFv <LH-0> (scFv)
scFv: DVVMTQSPLSLPVSLGDQASISCRSSQSLVHSNGKTYLHWYLQKPGQSPKLLIYKVSNRFSGVPDRFSGSGSVTDFTLMISRVEAEDLGVYFCSQSTHVPYTFGGGTKLEIKQVQLQQSGPELVKPGASVKMSCKASGYTFANHVIHWVKQKPGQGLEWIGYIYPYNDGTKYNEKFKDKATLTSDKSSTTAYMDLSSLASEDSAVYYCARGGYYTYDDWGQGTTLTVSSDYKDDDDK
notes: COS7 culture supernatant; also called CF2LH-0/pCOS1
B9: chimera MABL-2 antibody (antibody, V domains shown)
VH: B6 VH with D10E, V30A, M34I, G66D, E73D, S77T, A78T, E82D, S103T
VL: B6 VL with T7S, L30V, K33N, N35K, Q39H, G73V, K79M, S103F
notes: as for B6
B10: antibody MABL-2 sc(Fv)2 (scFv)
scFv: QVQLQQSGPELVKPGASVKMSCKASGYTFANHVIHWVKQKPGQGLEWIGYIYPYNDGTKYNEKFKDKATLTSDKSSTTAYMDLSSLASEDSAVYYCARGGYYTYDDWGQGTTLTVSSGGGGSGGGGSGGGGSDVVMTQSPLSLPVSLGDQASISCRSSQSLVHSNGKTYLHWYLQKPGQSPKLLIYKVSNRFSGVPDRFSGSGSVTDFTLMISRVEAEDLGVYFCSQSTHVPYTFGGGTKLEIKGGGGSGGGGSGGGGSVDSQVQLQQSGPELVKPGASVKMSCKASGYTFANHVIHWVKQKPGQGLEWIGYIYPYNDGTKYNEKFKDKATLTSDKSSTTAYMDLSSLASEDSAVYYCARGGYYTYDDWGQGTTLTVSSGGGGSGGGGSGGGGSDVVMTQSPLSLPVSLGDQASISCRSSQSLVHSNGKTYLHWYLQKPGQSPKLLIYKVSNRFSGVPDRFSGSGSVTDFTLMISRVEAEDLGVYFCSQSTHVPYTFGGGTKLEIKDYKDDDDK
notes: Single chain bivalent antibody; also called pCHOM2(Fv)2
B11: reconstructed single chain Fv of antibody MABL-2 (pCHOM2, COS7 culture supernatant) (scFv)
scFv: QVQLQQSGPELVKPGASVKMSCKASGYTFANHVIHWVKQKPGQGLEWIGYIYPYNDGTKYNEKFKDKATLTSDKSSTTAYMDLSSLASEDSAVYYCARGGYYTYDDWGQGTTLTVSSGGGGSGGGGSGGGGSDVVMTQSPLSLPVSLGDQASISCRSSQSLVHSNGKTYLHWYLQKPGQSPKLLIYKVSNRFSGVPDRFSGSGSVTDFTLMISRVEAEDLGVYFCSQSTHVPYTFGGGTKLEIKDYKDDDDK
notes: Unpurified COS7 supernatant; also called MABL2-scFv; MABL2-scFv/COS7

Experiments:
[1] = target: T1, human TPO receptor (MPL) expressed on …; test: cell-based or functional assay
[2] = target: T2, human Integrin Associated Protein (IAP) expressed on mouse leukemia cell line L1210 (human, UniProt Q08722 19-323); test: flow cytometry, COS7 supernatant on hIAP/L1210 cells, FITC anti-human IgG
T2 construct: whole, on cells; also called human IAP; hIAP/L1210
T2 sequence (Q08722 19-323): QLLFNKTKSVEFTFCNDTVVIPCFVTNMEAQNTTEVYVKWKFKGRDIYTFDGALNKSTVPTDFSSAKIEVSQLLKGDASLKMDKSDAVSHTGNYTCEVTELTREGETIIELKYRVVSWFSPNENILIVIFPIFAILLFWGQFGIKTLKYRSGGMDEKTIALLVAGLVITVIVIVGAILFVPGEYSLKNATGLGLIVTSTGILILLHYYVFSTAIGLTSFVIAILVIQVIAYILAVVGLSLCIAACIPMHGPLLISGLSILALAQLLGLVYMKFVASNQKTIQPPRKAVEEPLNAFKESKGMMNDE
Protocol: Flow cytometry was performed using the aforementioned culture supernatant of COS7 cells to measure binding to the antigen. The culture supernatant of the COS7 cells expressing the chimera MABL-1 antibody or the COS7 cells expressing the chimera MABL-2 antibody, or human IgG antibody (SIGMA) as a control was added to 4×10⁵ cells of mouse leukemia cell line L1210 expressing human IAP and incubated on ice. After washing, the FITC-labeled anti-human IgG antibody (Cappel) was added thereto. After incubating and washing, the fluorescence intensity thereof was measured using the FACScan apparatus (BECTON DICKINSON).

[3] = target: T2, human Integrin Associated Protein (IAP) …; test: flow cytometry, COS7 supernatant on hIAP/L1210 cells, anti-FLAG and FITC anti-mouse IgG
Protocol: Flow cytometry was performed using the aforementioned COS7 cells culture supernatant to measure the binding to the antigen. The culture supernatant of the COS7 cells expressing the reconstructed single chain Fv of antibody MABL-2 or the culture supernatant of COS7 cells transformed with pCHO1 vector as a control was added to 2×10⁵ cells of the mouse leukemia cell line L1210 expressing human Integrin Associated Protein (IAP) or the cell line L1210 transformed with pCOS1 as a control. After incubating on ice and washing, the mouse anti-FLAG antibody (SIGMA) was added. Then the cells were incubated and washed. Then, the FITC labeled anti-mouse IgG antibody (BECTON DICKINSON) was added thereto and the cells were incubated and washed again. Subsequently, the fluorescence intensity was measured using the FACScan apparatus (BECTON DICKINSON).
Flow cytometry was performed using the culture supernatants of COS7 cells prepared in Example 6.3 (1) to measure the binding of the MABL2-scFVs and sc(Fv)₂ to human Integrin Associated Protein (IAP) antigen. The culture supernatants to be tested or a culture supernatant of COS7 cells as a control was added to 2×10⁵ cells of the mouse leukemia cell line L1210 expressing human IAP. After incubating on ice and washing, 10 μg/mL of the mouse anti-FLAG antibody (SIGMA) was added and then the cells were incubated and washed. Then, the FITC labeled anti-mouse IgG antibody (BECTON DICKINSON) was added thereto and the cells were incubated and washed again. The fluorescence intensity was measured using the FACScan apparatus (BECTON DICKINSON). […] (see FIGS. 40a and 40b).

[4] = target: T3, secretion-type human IAP antigen (human, UniProt Q08722 19-142, limits assumed); test: competitive ELISA on captured secretion-type human IAP; competitor biotinized MABL-2
T3 construct: also called human IAP antigen (soluble, COS7 supernatant)
T3 sequence (Q08722 other isoform, or with tags, fused parts or gaps limits assumed): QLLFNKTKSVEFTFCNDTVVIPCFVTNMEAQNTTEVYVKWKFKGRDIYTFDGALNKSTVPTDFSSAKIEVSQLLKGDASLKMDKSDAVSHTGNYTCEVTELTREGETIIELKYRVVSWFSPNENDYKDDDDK
Protocol: The binding activity of the reconstructed single chain Fv of antibody MABL-2 was measured based on the inhibiting activity against the binding of mouse monoclonal antibodies to the antigen.
The anti-FLAG antibody adjusted to 1 μg/ml was added to each well on 96-well plate and incubated at 37° C. for 2 hours. After washing, blocking was performed with 1% BSA-PBS. After incubating and washing at a room temperature, the culture supernatant of COS7 cells into which the secretion-type human IAP antigen gene (SEQ ID No. 26) had been introduced was diluted with PBS into twofold volume and added to each well. After incubating and washing at a room temperature, a mixture of 50 μl of the biotinized MABL-2 antibody adjusted to 100 ng/ml and 50 μl of sequentially diluted supernatant of the COS7 cells expressing the reconstructed single chain Fv of antibody MABL-2 were added into each well. After incubating and washing at a room temperature, the alkaline phosphatase-conjugated streptoavidin (Zymed) was added into each well. After incubating and washing at a room temperature, the substrate solution (SIGMA) was added and absorbance of the reaction mixture in each well was measured at 405 nm.

| Binder | ED50, TPO-like agonist activity (proliferation of BaF/mpl cells, WST-8) [1] [nM] | binding result [3] | also measured |
| --- | --- | --- | --- |
| B1 | 29 | – | – |
| B2 | 34700 | – | – |
| B3 | 75 | – | – |
| B4 | 4440 | – | – |
| B5 | 10.1 | – | fold agonist activity against monovalent sc12B5 [1]: ~400 fold |
| B6 | – | – | binding result [2]: binds |
| B7 | – | binds | – |
| B8 | – | binds | – |
| B9 | – | – | binding result [2]: binds |
| B10 | – | binds | – |
| B11 | – | binds | binding result [4]: binds |
